Measured values published in patent publication US10876098B2, “Polynucleotide, host cell and a method to recombinantly produce the protein encoded by said polynucleotide having peroxygenative activity” (CONSEJO SUPERIOR DE INVESTIGACIONES CIENTIFICAS (CSIC), priority 2015, dated 2020).
Positions count from the first letter of the chain named. In names and notes the source's numbering stands.

Columns and labels:
[1] = biological target: T1, Agrocybe aegerita peroxygenase AaeUPO1 variant JaWa (PaDa-I + G241D, R257K: V57A, L67F, V75I, G241D, I248V, R257K, F311L), SEQ ID NO: 24 (Cyclocybe aegerita, UniProt B9W4V6, F354L/G284D/I291V/L110F/R300K/V100A/V118I); assay: Kinetic constants, JaWa variant
T1 sequence (B9W4V6 44-371 V100A/L110F/V118I/G284D/I291V/R300K/F354L): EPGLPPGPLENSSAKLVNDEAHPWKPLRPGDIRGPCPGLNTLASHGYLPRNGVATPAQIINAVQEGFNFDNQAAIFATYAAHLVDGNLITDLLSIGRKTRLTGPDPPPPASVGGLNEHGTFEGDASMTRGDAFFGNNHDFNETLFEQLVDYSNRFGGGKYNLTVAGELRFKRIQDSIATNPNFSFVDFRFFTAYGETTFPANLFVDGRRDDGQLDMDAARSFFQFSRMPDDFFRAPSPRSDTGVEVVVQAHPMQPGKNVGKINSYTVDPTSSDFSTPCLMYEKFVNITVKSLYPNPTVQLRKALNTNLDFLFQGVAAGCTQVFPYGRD
Protocol: In order to calculate the values of Km and kcat, values of Vmax were represented at substrate concentrations and the hyperbole function was adjusted (using SigmaPlot 10.0, wherein the parameter a is equal to kcat and the parameter b, to Km).
Additionally, the kinetic values of the two variants were determined using substrates of both peroxygenase and peroxidase activity (Table 2), as described in the section on materials and methods.

[2] = cited from earlier work
[3] = Activity of W24F variants on peroxidase substrates, flask culture supernatants; format: biochemical; details: all the tested substrates, relative to respective parental
Excerpt: (§1) FIG. 5 W24F variants obtained by means of directed mutagenesis. A) Model built on the crystal structure of the AaeUPO1 enzyme (PDB access number: 2YOR), comprising the mutations of the JaWa variant as well as the W24F modification with respect to wild AaeUPO1. The model is shown without a surface, with a transparent surface and with an opaque surface, showing position W24. B) Activity of the W24F variants using different substrates with respect to their respective parentals, relativised to the PaDa-I activity. The experiments were carried out using 100 mL flask culture supernatants.

[4] = Activity of W24F variants on peroxygenase substrates, flask culture supernatants; format: biochemical; details: relative to respective parental
Excerpt: as §1

[5] = Isoelectric point by two-dimensional electrophoresis; format: physicochemical
Protocol: The analyses were performed using an Autoflex III MALDI-TOF-TOF unit with smartbeam laser (Bruker Daltonics). The samples were evaluated in positive mode. The method was calibrated using BSA with standard, thereby covering a range of 15,000 to 70,000 Da. In order to determine the isoelectric point of the UPO variants, 8 μg of pure enzyme were subjected to two-dimensional electrophoresis. These experiments were carried out at the Proteomic and Genomic Service of the Biological Research Centre (CIB-CSIC, Spain).

Optimum pH for ABTS = format: biochemical
Optimum pH for DMP = format: biochemical
[6] = Optimum pH for naphthalene; format: biochemical
[7] = Turnover with 5′-hydroxypropranolol as substrate, HPLC; format: biochemical; details: 0.03 μM enzyme, 0.4 mM 5′-hydroxypropranolol, 2 mM H2O2, absence of ascorbic acid
Protocol: FIG. 14 Turnover rates of AaeUPO, JaWa and SoLo. […] The disappearance of the product 5′-hydroxypropranolol can be observed due to the formation of its corresponding quinone by means of the peroxidase activity of the enzyme.
(§2) The reactions were analysed by means of chromatography in reverse phase (HPLC). The equipment was composed of a tertiary pump (Varian-Agilent Technologies, USA) coupled to an autosampler (Merck Millipore, MA, USA); for the separation, a Zorbax Eclipse plus C18 column (15 cm×4.6 cm) at 40° C. was used and the detection was performed using a photodiode detector (PDA) (Varian, Agilent Technologies, USA). The mobile phase selected was a gradient from 10% methanol and 90% ddH2O (in both cases with 0.1% of acetic acid) up to 90% methanol and 10% ddH2O at a flow rate of 0.8 mL/min. The reaction was quantified at 280 nm (based on HPLC standards). […] The standard deviations were less than 5% in all cases.

[8] = Total turnover number (TTN) for synthesis of 5′-hydroxypropranolol from propranolol; format: biochemical; details: 0.03 μM enzyme, propranolol, 2 mM H2O2 added every 10 minutes
Protocol: FIG. 15 Calculation of the total turnover number (TTN) of AaeUPO and SoLo.
as §2

c1ccc2ccccc2c1 [Naphthalene, naphthalene]
decrease in Km ([1]; JaWa vs PaDa-I, naphthalene): 3 times

c1ccc2ccccc2c1 [naphthalene]
solubility of the naphthalene in water [2]: 31.7 µg/mL

OO [H2O2, hydrogen peroxide]
Km ([1]; H2O2, benzyl alcohol as substrate at saturation, pH 7.0): 1250 µM

CC(C)NCC(O)COc1cccc2c(O)cccc12 (stereo not drawn) [5′-hydroxypropranolol]
increase in kcat (up to) ([1]; summary of advantages, variant not named, matches JaWa vs PaDa-I): up to 3.6 fold

B1: PaDa-I-W24F: W24F variant obtained from the PaDa-I mutant, SEQ ID NO: 30 (protein)
chain: MKYFPLFPTLVYAVGVVAFPDYASLAGLSQQELDAIIPTLEAREPGLPPGPLENSSAKLVNDEAHPFKPLRPGDIRGPCPGLNTLASHGYLPRNGVATPAQIINAVQEGFNFDNQAAIFATYAAHLVDGNLITDLLSIGRKTRLTGPDPPPPASVGGLNEHGTFEGDASMTRGDAFFGNNHDFNETLFEQLVDYSNRFGGGKYNLTVAGELRFKRIQDSIATNPNFSFVDFRFFTAYGETTFPANLFVDGRRDDGQLDMDAARSFFQFSRMPDDFFRAPSPRSGTGVEVVVQAHPMQPGRNVGKINSYTVDPTSSDFSTPCLMYEKFVNITVKSLYPNPTVQLRKALNTNLDFLFQGVAAGCTQVFPYGRD
reduction of peroxidase activity by the W24F mutation [3]: 60% | reduction in the activity on naphthalene and NBD by the W24F mutation [4]: 50%

B2: JaWa-W24F: W24F variant obtained from the JaWa mutant, SEQ ID NO: 32 (protein)
chain: B1 chain with G284D, R300K
reduction of peroxidase activity by the W24F mutation [3]: 60% | reduction in the activity on naphthalene and NBD by the W24F mutation [4]: 50%

B3: AaeUPO1: unspecific peroxygenase UPO (E.C. 1.11.2.1) of Agrocybe aegerita, wild type, SEQ ID NO: 2 / 4 (protein, listed as Agrocybe aegerita)
chain: B1 chain with F67W, A100V, F110L, I118V, V291I, L354F
pI [5]: 4.9-5.7 | Optimum pH for ABTS (Optimum pH for ABTS): 4.0 | Optimum pH for DMP (Optimum pH for DMP): 7.0 | Optimum pH for naphthalene [6]: 6.5 | 5′-hydroxypropranolol maintained without oxidising [7]: oxidise practically the entire product | TTNs, With ascorbic acid ([8]; 4 mM ascorbic acid): 14,000 | TTNs, Without ascorbic acid ([8]; absence of ascorbic acid): 3,000
